Assay results taken from PMC7477763.

What was measured:
[1] = molecular target: human UCH-L3, recombinant (human) (UniProt P15374)
[2] = molecular target: Middle East respiratory syndrome papain-like protease (MERS PLpro), recombinant (Middle East respiratory syndrome coronavirus)

Sequence of UniProt P15374 (P15374 whole entry): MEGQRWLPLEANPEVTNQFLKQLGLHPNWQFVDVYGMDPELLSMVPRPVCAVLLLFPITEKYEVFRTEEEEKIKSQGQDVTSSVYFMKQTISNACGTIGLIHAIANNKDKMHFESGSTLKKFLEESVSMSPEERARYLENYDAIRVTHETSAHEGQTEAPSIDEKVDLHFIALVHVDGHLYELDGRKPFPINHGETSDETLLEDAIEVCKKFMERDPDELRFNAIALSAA

For “Ub-ACC (ubiquitin with C-terminal ACC fluorophore) (from UniProt P0CG48 1-76)”, the KM of hydrolysis of the ACC-labeled substrate (release of ACC) [1] was 0.048 µM, the kcat of hydrolysis of the ACC-labeled substrate [1] was 0.107 s^–1 and the KM of hydrolysis of the ACC-labeled substrate (release of ACC) [2] was 3.55 µM. It also gave a kcat of hydrolysis of the ACC-labeled substrate [2] of 3.68 s^–1 and a kcat/KM of hydrolysis of the ACC-labeled substrate [2] of 1e+06 M^–1 s^–1.
